According to patent US20230365956A1:

Key:
[1] = molecular target: SARS-CoV-2 RBD variant Delta (L452R, T478K) (Sino Biological) (SARS-CoV-2) (UniProt P0DTC2); assay: BLI, affinity format: binder on AHC sensor, RBD in solution
[2] = molecular target: SARS-CoV-2 RBD variant Alpha (N501Y) (Sino Biological) (SARS-CoV-2) (UniProt P0DTC2); assay: as above
[3] = molecular target: SARS-CoV-2 RBD variant Beta (K417N, E484K, N501Y) (Sino Biological) (SARS-CoV-2) (UniProt P0DTC2); assay: as above
[4] = molecular target: SARS-CoV-2 RBD variant Kappa (L452R, E484Q) (Sino Biological) (SARS-CoV-2) (UniProt P0DTC2); assay: as above
[5] = molecular target: SARS-CoV-2 RBD variant Lambda (L452Q, F490S) (Sino Biological) (SARS-CoV-2) (UniProt P0DTC2); assay: as above
[6] = molecular target: SARS-CoV-2 RBD variant Gamma (K417T, E484K, N501Y) (Sino Biological) (SARS-CoV-2) (UniProt P0DTC2); assay: as above
[7] = molecular target: SARS-CoV-2 RBD variant Delta (L452R, T478K) (Sino Biological) (SARS-CoV-2) (UniProt P0DTC2); assay: BLI, avidity format: response at highest analyte concentration
[8] = molecular target: SARS-CoV-2 RBD variant Alpha (N501Y) (Sino Biological) (SARS-CoV-2) (UniProt P0DTC2); assay: as above
[9] = molecular target: SARS-CoV-2 RBD variant Beta (K417N, E484K, N501Y) (Sino Biological) (SARS-CoV-2) (UniProt P0DTC2); assay: as above
[10] = molecular target: SARS-CoV-2 RBD variant Kappa (L452R, E484Q) (Sino Biological) (SARS-CoV-2) (UniProt P0DTC2); assay: as above
[11] = molecular target: SARS-CoV-2 RBD variant Lambda (L452Q, F490S) (Sino Biological) (SARS-CoV-2) (UniProt P0DTC2); assay: as above
[12] = molecular target: SARS-CoV-2 RBD variant Gamma (K417T, E484K, N501Y) (Sino Biological) (SARS-CoV-2) (UniProt P0DTC2); assay: as above
[13] = molecular target: SARS-CoV-2 RBD variant Delta (L452R, T478K) (Sino Biological) (SARS-CoV-2) (UniProt P0DTC2); assay: BLI, affinity format: response at highest analyte concentration
[14] = molecular target: SARS-CoV-2 RBD variant Alpha (N501Y) (Sino Biological) (SARS-CoV-2) (UniProt P0DTC2); assay: as above
[15] = molecular target: SARS-CoV-2 RBD variant Beta (K417N, E484K, N501Y) (Sino Biological) (SARS-CoV-2) (UniProt P0DTC2); assay: as above
[16] = molecular target: SARS-CoV-2 RBD variant Kappa (L452R, E484Q) (Sino Biological) (SARS-CoV-2) (UniProt P0DTC2); assay: as above
[17] = molecular target: SARS-CoV-2 RBD variant Lambda (L452Q, F490S) (Sino Biological) (SARS-CoV-2) (UniProt P0DTC2); assay: as above
[18] = molecular target: SARS-CoV-2 RBD variant Gamma (K417T, E484K, N501Y) (Sino Biological) (SARS-CoV-2) (UniProt P0DTC2); assay: as above
[19] = molecular target: SARS-CoV-2 RBD variant Delta (L452R, T478K) (Sino Biological) (SARS-CoV-2) (UniProt P0DTC2); assay: BLI, avidity format: biotinylated RBD on SA sensor, binder in solution
[20] = molecular target: SARS-CoV-2 RBD variant Alpha (N501Y) (Sino Biological) (SARS-CoV-2) (UniProt P0DTC2); assay: as above
[21] = molecular target: SARS-CoV-2 RBD variant Beta (K417N, E484K, N501Y) (Sino Biological) (SARS-CoV-2) (UniProt P0DTC2); assay: as above
[22] = molecular target: SARS-CoV-2 RBD variant Kappa (L452R, E484Q) (Sino Biological) (SARS-CoV-2) (UniProt P0DTC2); assay: as above
[23] = molecular target: SARS-CoV-2 RBD variant Lambda (L452Q, F490S) (Sino Biological) (SARS-CoV-2) (UniProt P0DTC2); assay: as above
[24] = molecular target: SARS-CoV-2 RBD variant Gamma (K417T, E484K, N501Y) (Sino Biological) (SARS-CoV-2) (UniProt P0DTC2); assay: as above

Cilgavimab (antibody) showed a Kd [1] of 7340 pM, a koff [1] of 0.00321 s⁻¹ and a kon [1] of 438000 M⁻¹ s⁻¹. For the same substance, the Kd [2] was 2440 pM, the koff [2] was 0.000981 s⁻¹ and the kon [2] was 401000 M⁻¹ s⁻¹. The Kd [3] was 1430 pM, the koff [3] was 0.000631 s⁻¹ and the kon [3] was 441000 M⁻¹ s⁻¹. For the same substance, the Kd [4] was 9890 pM, the koff [4] was 0.00364 s⁻¹ and the kon [4] was 368000 M⁻¹ s⁻¹. The Kd [5] was 9810 pM, the koff [5] was 0.00348 s⁻¹ and the kon [5] was 354000 M⁻¹ s⁻¹. It also gave a Kd [6] of 2820 pM, a koff [6] of 0.0011 s⁻¹ and a kon [6] of 392000 M⁻¹ s⁻¹. The Response [7] was 0.525 nm shift, the Response [8] was 0.697 nm shift and the Response [9] was 0.473 nm shift. For the same substance, the Response [10] was 0.628 nm shift, the Response [11] was 0.727 nm shift and the Response [12] was 0.657 nm shift. The Response [13] was 0.357 nm shift, the Response [14] was 0.452 nm shift and the Response [15] was 0.438 nm shift. It also gave a Response [16] of 0.322 nm shift, a Response [17] of 0.236 nm shift and a Response [18] of 0.428 nm shift. The Kd [19] was 48.1 pM, the koff [19] was 1.61e-05 s⁻¹ and the kon [19] was 335000 M⁻¹ s⁻¹. The Kd [20] was 124 pM, the koff [20] was 4.26e-05 s⁻¹ and the kon [20] was 344000 M⁻¹ s⁻¹. It also gave a Kd [21] of 273 pM, a koff [21] of 9.67e-05 s⁻¹ and a kon [21] of 355000 M⁻¹ s⁻¹. For the same substance, the Kd [22] was 204 pM, the koff [22] was 6.08e-05 s⁻¹ and the kon [22] was 298000 M⁻¹ s⁻¹. It also gave a Kd [23] of 81.5 pM, a koff [23] of 2.37e-05 s⁻¹ and a kon [23] of 291000 M⁻¹ s⁻¹. The Kd [24] was 193 pM, the koff [24] was 7.42e-05 s⁻¹ and the kon [24] was 385000 M⁻¹ s⁻¹.
